In paper PMC3406945, “A smallest 6 kda metalloprotease, mini-matrilysin, in living world: a revolutionary conserved zinc-dependent proteolytic domain- helix-loop-helix catalytic zinc binding domain (ZBD)” (Journal of Biomedical Science, 2012):
Where “and” joins values, the source holds several entries; their conditions need not be identical. Equal entries are not always repeated.

Target: the molecule itself
Assay: CM-transferrin zymography; purified and refolded 6 kDa ZBD (heparin and Triton X-100 present) in sample buffer without dithiothreitol at room temperature, run on a 12.5% SDS-PAGE gel with 0.3 mg/ml CM-transferrin embedded; oligomer size read from the active bands

B1: recombinant rat matrilysin zinc-binding domain (ZBD) (domain or fragment, UniProt P50280 212-267, looked up)
chain: LFVATHELGHSLGLGHSSVPSSVMYPTYQGDHSEDFSLTKDDIAGIQKLYGKRNKL
notes: 212-267, said to correspond to human a.a; 188-247; called a 60-residue fragment; Cloned into the Nde1 and BamH1 sites of PET3a; also called 6 kDa ZBD; 6 kDa MMP-7 ZBD
stoichiometry N: 6 and 8 and 5
